Patent US20170210813A1 (Regeneron, published 2017)

T1: PDGFR-beta extracellular domain construct D1-D3 (human)
T1 construct: also called D1-3
T1 chain: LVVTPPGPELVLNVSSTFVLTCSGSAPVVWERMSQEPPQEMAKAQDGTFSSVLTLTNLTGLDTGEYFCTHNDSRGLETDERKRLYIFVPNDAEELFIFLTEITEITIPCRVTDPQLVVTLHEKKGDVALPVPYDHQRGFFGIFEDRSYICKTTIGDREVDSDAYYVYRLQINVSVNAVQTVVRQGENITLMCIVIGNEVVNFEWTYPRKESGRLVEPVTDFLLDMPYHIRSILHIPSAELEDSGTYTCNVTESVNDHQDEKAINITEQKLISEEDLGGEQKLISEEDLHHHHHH

T2: PDGFR-beta extracellular domain construct D1-D4 (human)
T2 construct: also called D1-4
T2 chain: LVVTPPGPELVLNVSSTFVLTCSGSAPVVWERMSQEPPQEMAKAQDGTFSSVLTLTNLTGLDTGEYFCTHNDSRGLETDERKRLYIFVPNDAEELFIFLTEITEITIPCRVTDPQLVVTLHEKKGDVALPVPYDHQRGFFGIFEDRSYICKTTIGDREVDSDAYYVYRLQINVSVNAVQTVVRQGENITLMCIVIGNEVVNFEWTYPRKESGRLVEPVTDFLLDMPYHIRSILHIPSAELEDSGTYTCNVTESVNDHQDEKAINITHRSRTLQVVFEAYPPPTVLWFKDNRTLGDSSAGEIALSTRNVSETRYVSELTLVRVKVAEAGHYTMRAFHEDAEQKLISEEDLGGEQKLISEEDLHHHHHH

T3: PDGFR-beta extracellular domain construct D1-D2 (human)
T3 construct: also called D1-2
T3 chain: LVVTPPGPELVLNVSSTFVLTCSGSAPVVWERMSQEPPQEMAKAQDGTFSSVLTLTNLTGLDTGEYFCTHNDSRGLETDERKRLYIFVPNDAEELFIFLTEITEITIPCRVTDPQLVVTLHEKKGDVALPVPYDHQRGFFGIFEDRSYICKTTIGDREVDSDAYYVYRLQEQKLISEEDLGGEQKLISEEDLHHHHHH


Tests used:
hPDGFRb.mmh [1] = molecular target: T4, hPDGFRb.mmh (human, UniProt P09619 33-531); test: Octet BLI cross-competition, 25 C; hPDGFRb.mmh on anti-Penta-His tips pre-saturated with mAb-1 H4H3099S (row 6)
T4 construct: Soluble monomeric construct; also called soluble human PDGFR-beta.mmh
Procedure: (§1) A cross-competition assay was conducted to assess the ability of select antibodies to compete with one another for binding to human PDGFR-beta. […] Each PDGFR-beta.mmh-coated sensor tip was saturated for 5 min with a first anti-PDGFR-beta antibody (Mab #1; 50 μg/mL). Next, each sensor tip was saturated with a solution of a second anti-PDGFR-beta antibody (Mab #2). The real time response of Mab #2 binding to PDGR-beta.mmh pre-complexed with Mab #1 was then monitored. All assays were performed at 25° C. with a flow rate of 1000 rpm on an Octet RED384 biosensor in Octet HBST buffer according to manufacturer's instructions (ForteBio Corp., Menlo Park, Calif.). Results are illustrated in FIG. 2.

hPDGFRb.mmh [2] = molecular target: T4, hPDGFRb.mmh; test: Octet BLI cross-competition, 25 C; hPDGFRb.mmh on anti-Penta-His tips pre-saturated with mAb-1 H4H3305N (row 8)
Procedure: as §1

[3] = molecular target: T1, PDGFR-beta extracellular domain …; test: SPR, mAb captured, construct at 50nM
Procedure: (§2) Four different anti-PDGFR-beta antibodies were tested for binding to the various constructs by surface plasmon resonance (Biacore). Briefly, 150-200 RU's of anti-PDGFR beta antibody was captured via an anti-human Fc CM5 chip. Next, the individual domain constructs, or full-length PDGFR beta, was applied over the antibody-bound surface at a concentration of 50nM. The ability of the various antibodies to bind to the various domain constructs was measured. (−)=No binding observed; (+)=Binding observed; ND=Not determined.

[4] = molecular target: T2, PDGFR-beta extracellular domain …; test: SPR, mAb captured, construct at 50nM
Procedure: as §2

[5] = molecular target: T3, PDGFR-beta extracellular domain …; test: SPR, mAb captured, construct at 50nM
Procedure: as §2

hPDGFRb.mmh [6] = molecular target: T4, hPDGFRb.mmh; test: blocking ELISA, biot-hPDGFRb.mmh to coated PDGF-BB
hPDGFRb.mmh [7] = molecular target: T4, hPDGFRb.mmh; test: Octet BLI cross-competition, 25 C; hPDGFRb.mmh on anti-Penta-His tips pre-saturated with mAb-1 H4H3310N (row 9)
Procedure: as §1

[8] = molecular target: full length human PDGFR-beta on HEK293 cells (human, UniProt P09619 33-1106); test: cell-based or functional assay
hPDGFRb.mmh [9] = molecular target: T4, hPDGFRb.mmh; test: Octet BLI cross-competition, 25 C; hPDGFRb.mmh on anti-Penta-His tips pre-saturated with mAb-1 H4H3374N (row 3)
Procedure: as §1

hPDGFRb.mmh [10] = molecular target: T4, hPDGFRb.mmh; test: Octet BLI cross-competition, 25 C; hPDGFRb.mmh on anti-Penta-His tips pre-saturated with mAb-1 Control I (row 1)
Procedure: as §1

[11] = molecular target: T1, PDGFR-beta extracellular domain …; test: SPR, mAb captured, construct as analyte
Procedure: as §2

[12] = molecular target: T2, PDGFR-beta extracellular domain …; test: SPR, mAb captured, construct as analyte
Procedure: as §2

[13] = molecular target: T3, PDGFR-beta extracellular domain …; test: SPR, mAb captured, construct as analyte
Procedure: as §2

Binder | Response of mAb-2 Binding to hPDGFRβ.mmh Pre-Complexed with mAb-1 (nm) (hPDGFRb.mmh [1]) | Response of mAb-2 Binding to hPDGFRβ.mmh Pre-Complexed with mAb-1 (nm) (hPDGFRb.mmh [2]) | binding result [3] | binding result [4] | binding result [5] | % Maximum Blocking (hPDGFRb.mmh [6]) [%] | IC50 (hPDGFRb.mmh [6]) [nM] | Response of mAb-2 Binding to hPDGFRβ.mmh Pre-Complexed with mAb-1 (nm) (hPDGFRb.mmh [7]) | Percent Internalization (Relative to Control I) [8] [%] | Response of mAb-2 Binding to hPDGFRβ.mmh Pre-Complexed with mAb-1 (nm) (hPDGFRb.mmh [9]) | Response of mAb-2 Binding to hPDGFRβ.mmh Pre-Complexed with mAb-1 (nm) (hPDGFRb.mmh [10]) | binding result [11] | binding result [12] | binding result [13]
H4H3374N (antibody, human IgG4, V domains shown, human IgG4 Fc (H4H prefix)) VH: QLQLQESGPGLVKPSETLSLTCTVSGGSITSSSYYWGWIRQPPGKGLEWIGSIYYRGSTNYNPSLKSRVTISVDSSKNQFYLKVSSVTAVDTAVYYCARQNGAARPSWFDPWGQGTLVTVSS VL: EIVLTQSPDTISLSPGERATLSCRASQSISSIYLAWYQQKPGQAPRLLIYGASSRVTGIPDRFSVSGSGTDFTLTISRLEPEDFAVYYCQHYGISPFTFGPGTKVDIR | 0.27 | 0.27 | binds | binds | binds | 86 | 0.12 | 0.26 | 81 | – | – | – | – | –
H4H3305N (antibody, human IgG4, V domains shown, human IgG4 Fc (H4H prefix)) VH: QLQLQESGPGLVKPSETLSLTCIVSGGSISSSSYYWGWIRQPPGKGLEWIGSLYYSGITFYNPSLKSRVTISVDTSKNQFSLTLTSVTAADTAVFYCARHRVMASSPFDHWGQGTLVTVSS VL: not shown | 0 | – | – | – | – | 86 | 0.3 | 0.01 | 79 | 0.24 | 0.22 | no binding (tested: 50nM) | no binding (tested: 50nM) | no binding (tested: 50nM)
H4H3094P (antibody, human IgG4, V domains shown, also called H4H3394P) VH: EVQLVESGGGLVQPGGSLRLSCAASGFTFSSYWMSWVRQAPGKGLEWVANMNQDGSETHYVDSVKGRLSISRDNAKKSLFLHMNSLRAEDTAVYFCARDLVPPRQDDYYYYFGMDVWGHGTTVTVSS VL: DIQMTQSPSTLSASVGDRVTITCRASQSISDWLAWYQQKPGKAPKLLIFKASTLESGVPSRFSGSGSGTEFTLTISSLQPDDFATYYCQQYNSYSRTFGQGTKVEIK | 0.25 | 0.25 | binds | binds | binds | 85 | 0.12 | 0.25 | 77 | 0.02 | -0.01 | – | – | –
H4H3099S (antibody, human IgG4, V domains shown, human IgG4 Fc (H4H prefix)) VH: QITLKESGPTLVKPTQTLTLTCTFSGFSLTTTGVGVGWIRQPPGKALEWLALIYWNDLKRYSPSLKNRLTITKDTSRHQVVLTMTNMDPMDTATYYCAHRPLYYGSGSGWFDPWGPGTTVTVSS VL: not shown | – | – | – | – | – | 91 | 0.097 | – | 88 | 0.31 | 0.28 | no binding (tested: 50nM) | no binding (tested: 50nM) | no binding (tested: 50nM)
